Source: US20110165679

Assays:
Assay in all cases: cell_activity
[1] = system: Lig3-4+ (engineered meganuclease variant); conditions: 1 of 353 clones mutated; BMS maize cells
[2] = system: Lig3-4++ (engineered meganuclease variant); conditions: 56 of 237 clones mutated; BMS maize cells
[3] = system: Lig3-4 (engineered I-CreI-type single-chain meganuclease); conditions: 3 of 637 clones mutated; BMS maize cells
I-CreI = biological target: T1, I-CreI (UniProt P05725); conditions: BMS maize cells
T1 sequence: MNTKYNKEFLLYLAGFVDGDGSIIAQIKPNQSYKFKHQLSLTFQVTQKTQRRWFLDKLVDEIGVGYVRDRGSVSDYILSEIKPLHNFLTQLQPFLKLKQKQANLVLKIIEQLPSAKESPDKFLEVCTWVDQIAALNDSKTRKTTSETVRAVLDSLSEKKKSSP

[4] = biological target: T2, I-SceI (maize codon-modified moI-SceI) (UniProt P03882); conditions: BMS maize cells
T2 sequence: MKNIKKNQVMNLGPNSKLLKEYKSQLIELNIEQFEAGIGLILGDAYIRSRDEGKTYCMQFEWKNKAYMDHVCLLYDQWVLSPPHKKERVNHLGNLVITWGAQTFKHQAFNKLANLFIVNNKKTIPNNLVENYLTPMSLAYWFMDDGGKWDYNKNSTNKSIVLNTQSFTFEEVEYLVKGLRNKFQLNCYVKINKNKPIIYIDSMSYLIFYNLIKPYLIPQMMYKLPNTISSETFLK

ATATACCTCACACGTACGCGTA (double strand) [LIG-1 site (near liguleless1)]
activity (% mutation rate) [1]: 0.3
activity (% mutation rate) [2]: 24
activity (% mutation rate) [3]: 0.5

Double I-CreI site
activity (% mutation rate) (I-CreI; 50 of 66 clones mutated): 76

Double I-SceI site
activity (% mutation rate) ([4]; 57 of 63 clones mutated): 90

I-CreI site
activity (% mutation rate) (I-CreI; 318 of 904 clones mutated, 0 of 34 without endonuclease): 35

I-SceI site
activity (% mutation rate) ([4]; 49 of 58 clones mutated, T-DNA replicon assay, 0 of 34 without endonuclease): 84
